Consider two molecules from patent US20220033439A1 (SEOUL NATIONAL UNIVERSITY R AND DB FOUNDATION, published 2022).

To fix the notation:
B1: Mycobacterium tuberculosis toxin protein VapC26 (enzyme)
chain: MIIDTSALLAYFDAAEPDHAAVSECIDSSADALVVSPYVVAELDYLVATRVGVDAELAVLRELAGGAWELANCGAAEIEQAARIVTKYQDQRIGIADAANVVLADRYRTRTILTLDRRHFSALRPIGGGRFTVIP

Series [1] concerns the molecule itself. Description: crystal structure; VapC26 homodimer.
For series [2], the target named is B1. Description: size exclusion chromatography with multi-angle light scattering. On the technique in general: Size exclusion chromatography separates by hydrodynamic size, large species first.
Series [3] deals with the molecule itself. Description: crystal structure and size exclusion chromatography with MALS; VapB26 homodimer.

For the molecule B1, the binding result in series [1] is listed as “binds”.

B2: Mycobacterium tuberculosis antitoxin protein VapB26 (other)
chain: MDKTTVYLPDELKAAVKRAARQRGVSEAQVIRESIRAAVGGAKPPPRGGLYAGSEPIARRVDELLAGFGER
For the molecule B2, the binding result in series [2] and in series [3] was “binds” throughout.
